Laboratory results: patent US20240166767A1 (SCIRHOM, published 2024)

Target: T1, dog iRhom2 full length wild type C-terminally tagged with 3 consecutive copies of the T7 epitope (dog, UniProt Q00M95 1-827)
T1 construct: whole, on cells; also called dog-iR2-FL-WT-T7; expressed by MEF-DKO-Dog-iR2-FL-WT-T7 cells
T1 sequence: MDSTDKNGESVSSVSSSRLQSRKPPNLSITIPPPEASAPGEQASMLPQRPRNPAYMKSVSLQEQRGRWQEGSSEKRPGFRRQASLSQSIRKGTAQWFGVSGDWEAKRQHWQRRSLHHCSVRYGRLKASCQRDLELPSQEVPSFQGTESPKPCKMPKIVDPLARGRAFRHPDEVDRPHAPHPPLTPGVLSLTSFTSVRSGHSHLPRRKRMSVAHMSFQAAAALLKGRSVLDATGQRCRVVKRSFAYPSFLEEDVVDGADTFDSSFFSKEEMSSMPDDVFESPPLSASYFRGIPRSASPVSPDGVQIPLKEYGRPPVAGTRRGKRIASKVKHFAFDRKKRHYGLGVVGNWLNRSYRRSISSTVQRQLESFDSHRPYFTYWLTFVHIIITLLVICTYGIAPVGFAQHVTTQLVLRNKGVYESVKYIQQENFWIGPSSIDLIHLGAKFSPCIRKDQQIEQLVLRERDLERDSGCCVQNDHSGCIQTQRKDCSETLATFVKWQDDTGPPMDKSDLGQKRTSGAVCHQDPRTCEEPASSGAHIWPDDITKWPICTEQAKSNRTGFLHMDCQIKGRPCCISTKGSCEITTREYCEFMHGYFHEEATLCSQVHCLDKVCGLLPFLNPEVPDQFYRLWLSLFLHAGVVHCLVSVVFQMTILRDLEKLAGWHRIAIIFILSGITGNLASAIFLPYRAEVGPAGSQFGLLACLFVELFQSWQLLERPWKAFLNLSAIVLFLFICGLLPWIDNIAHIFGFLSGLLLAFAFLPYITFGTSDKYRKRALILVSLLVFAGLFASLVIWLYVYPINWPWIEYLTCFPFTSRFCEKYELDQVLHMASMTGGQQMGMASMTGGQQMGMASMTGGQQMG
Test: FACS on MEF-DKO-Dog-iR2-FL-WT-T7 cells
Procedure: In brief, immortalized MEF-DKO-EV control cells, MEF-DKO-rhesus-iR2-FL-WT-T7 cells, MEF-DKO-cyno-iR2-FL-WT-T7 cells, MEF-DKO-dog-iR2-FL-WT-T7 cells and MEF-DKO-rabbit-iR2-FL-WT-T7 cells, as well as their respective iRhom1 counterparts, were harvested with 10 mM EDTA in PBS, washed and resuspended in FACS buffer (PBS, 3% FBS, 0.05% sodium azide), and seeded in Nunc U-bottom 96-well plates (Thermo Fisher Scientific, USA) at approximately 3×10⁵ cells per well. To pellet cells and remove supernatants, the plates were centrifuged at 1,500 rpm and 4° C. for 3 minutes. For primary staining, cells were resuspended in 100 μl per well of either FACS buffer alone (controls), mouse monoclonal anti-T7 IgG (Merck Millipore, USA) at 3 μg/ml FACS buffer or the antibodies of the invention also at 3 μg/ml FACS buffer and incubated on ice for 1 hour. Afterwards, plates were centrifuged at 1,500 rpm and 4° C. for 3 minutes and washed twice with 200 μl per well of FACS buffer. For secondary staining of previous anti T7 staining, cells were spun down and resuspended in 100 μl per well of PE-conjugated goat anti-mouse IgG F(ab′)2 detection fragment (Dianova, Germany) diluted 1:100 in FACS buffer. […] Finally, cells were resuspended in 150 μl per well of FACS buffer and analyzed using a BD Accuri™ C6 Plus flow cytometer (Becton Dickinson, Germany).

B1: humanized antibody 16-B-03 (antibody, V domains shown)
VH: QVTLRESGPALVKPTQTLTLTCTFSGFSLSTFALGVGWIRQPPGKALEWLAHIWWDDDKYYNPALKSRLTISKDTSKNQVVLTITNMDPVDTATYYCARITTYYYGMDYWGQGTLVTVSS
VL: EIVMTQSPDFQSVTPKEKVTITCRASQSIGNHLHWYQQKPDASPKLLIKYASQSISGVPSRFSGSGSGTDFTLTINSLEAEDAATYFCQQSYQWPLTFGQGTKLEIK
notes: Tested as whole humanized antibody produced in CHO cells and detected with anti-human IgG; the general methods speak of human IgG1/Kappa; also called clone 16-B-03
binding result: binds
